Source: US10400249B2, “HPPD variants and methods of use” (priority 2014, dated 2019)

B1: K131: PfHPPD variant E335P, G336Y, K339A, A340Q (protein)
chain: MADLYENPMGLMGFEFIEFASPTPGTLEPIFEIMGFTKVATHRSKNVHLYRQGEINLILNNEPNSIASYFAAEHGPSVCGMAFRVKDSQKAYNRALELGAQPIHIDTGPMELNLPAIKGIGGAPLYLIDRFGEGSSIYDIDFVYLEGVERNPVGAGLKVIDHLTHNVYRGRMVYWANFYEKLFNFREARYFDIKGEYTGLTSKAMSAPDGMIRIPLNEESSKGAGQIEEFLMQFNGEGIQHVAFLTDDLVKTWDALKKIGMRFMTAPPDTYYEMLEGRLPDHGEPVDQLQARGILLDGSSVEGDKRLLLQIFSETLMGPVFFEFIQRKGDDGFGPYNFAQLFESIERDQVRRGVLTAD
modifications: HPPD variant - K131
notes: PfHPPD variant E335P, G336Y, K339A, A340Q
B2: K132: PfHPPD variant E335P, G336Y, A340E (protein)
chain: MADLYENPMGLMGFEFIEFASPTPGTLEPIFEIMGFTKVATHRSKNVHLYRQGEINLILNNEPNSIASYFAAEHGPSVCGMAFRVKDSQKAYNRALELGAQPIHIDTGPMELNLPAIKGIGGAPLYLIDRFGEGSSIYDIDFVYLEGVERNPVGAGLKVIDHLTHNVYRGRMVYWANFYEKLFNFREARYFDIKGEYTGLTSKAMSAPDGMIRIPLNEESSKGAGQIEEFLMQFNGEGIQHVAFLTDDLVKTWDALKKIGMRFMTAPPDTYYEMLEGRLPDHGEPVDQLQARGILLDGSSVEGDKRLLLQIFSETLMGPVFFEFIQRKGDDGFGPYNFKELFESIERDQVRRGVLTAD
modifications: HPPD variant - K132
notes: PfHPPD variant E335P, G336Y, A340E
B3: K137: PfHPPD variant P215L, E335P, G336Y (protein)
chain: MADLYENPMGLMGFEFIEFASPTPGTLEPIFEIMGFTKVATHRSKNVHLYRQGEINLILNNEPNSIASYFAAEHGPSVCGMAFRVKDSQKAYNRALELGAQPIHIDTGPMELNLPAIKGIGGAPLYLIDRFGEGSSIYDIDFVYLEGVERNPVGAGLKVIDHLTHNVYRGRMVYWANFYEKLFNFREARYFDIKGEYTGLTSKAMSAPDGMIRILLNEESSKGAGQIEEFLMQFNGEGIQHVAFLTDDLVKTWDALKKIGMRFMTAPPDTYYEMLEGRLPDHGEPVDQLQARGILLDGSSVEGDKRLLLQIFSETLMGPVFFEFIQRKGDDGFGPYNFKALFESIERDQVRRGVLTAD
modifications: HPPD variant - K137
notes: PfHPPD variant P215L, E335P, G336Y
B4: K203: PfHPPD variant P215L, E335P, G336Y, A340E (protein)
chain: MADLYENPMGLMGFEFIEFASPTPGTLEPIFEIMGFTKVATHRSKNVHLYRQGEINLILNNEPNSIASYFAAEHGPSVCGMAFRVKDSQKAYNRALELGAQPIHIDTGPMELNLPAIKGIGGAPLYLIDRFGEGSSIYDIDFVYLEGVERNPVGAGLKVIDHLTHNVYRGRMVYWANFYEKLFNFREARYFDIKGEYTGLTSKAMSAPDGMIRILLNEESSKGAGQIEEFLMQFNGEGIQHVAFLTDDLVKTWDALKKIGMRFMTAPPDTYYEMLEGRLPDHGEPVDQLQARGILLDGSSVEGDKRLLLQIFSETLMGPVFFEFIQRKGDDGFGPYNFKELFESIERDQVRRGVLTAD
modifications: HPPD variant - K203
notes: PfHPPD variant P215L, E335P, G336Y, A340E
B5: K255: PfHPPD variant P215A, E335P, G336F, A340E (protein)
chain: MADLYENPMGLMGFEFIEFASPTPGTLEPIFEIMGFTKVATHRSKNVHLYRQGEINLILNNEPNSIASYFAAEHGPSVCGMAFRVKDSQKAYNRALELGAQPIHIDTGPMELNLPAIKGIGGAPLYLIDRFGEGSSIYDIDFVYLEGVERNPVGAGLKVIDHLTHNVYRGRMVYWANFYEKLFNFREARYFDIKGEYTGLTSKAMSAPDGMIRIALNEESSKGAGQIEEFLMQFNGEGIQHVAFLTDDLVKTWDALKKIGMRFMTAPPDTYYEMLEGRLPDHGEPVDQLQARGILLDGSSVEGDKRLLLQIFSETLMGPVFFEFIQRKGDDGFGPFNFKELFESIERDQVRRGVLTAD
modifications: HPPD variant - K255
notes: PfHPPD variant P215A, E335P, G336F, A340E
B6: K258: PfHPPD variant P215N, E335P, G336F, A340E (protein)
chain: MADLYENPMGLMGFEFIEFASPTPGTLEPIFEIMGFTKVATHRSKNVHLYRQGEINLILNNEPNSIASYFAAEHGPSVCGMAFRVKDSQKAYNRALELGAQPIHIDTGPMELNLPAIKGIGGAPLYLIDRFGEGSSIYDIDFVYLEGVERNPVGAGLKVIDHLTHNVYRGRMVYWANFYEKLFNFREARYFDIKGEYTGLTSKAMSAPDGMIRINLNEESSKGAGQIEEFLMQFNGEGIQHVAFLTDDLVKTWDALKKIGMRFMTAPPDTYYEMLEGRLPDHGEPVDQLQARGILLDGSSVEGDKRLLLQIFSETLMGPVFFEFIQRKGDDGFGPFNFKELFESIERDQVRRGVLTAD
modifications: HPPD variant - K258
notes: PfHPPD variant P215N, E335P, G336F, A340E
B7: K300: PfHPPD variant P215L, E335P, G336F, A340G (protein)
chain: MADLYENPMGLMGFEFIEFASPTPGTLEPIFEIMGFTKVATHRSKNVHLYRQGEINLILNNEPNSIASYFAAEHGPSVCGMAFRVKDSQKAYNRALELGAQPIHIDTGPMELNLPAIKGIGGAPLYLIDRFGEGSSIYDIDFVYLEGVERNPVGAGLKVIDHLTHNVYRGRMVYWANFYEKLFNFREARYFDIKGEYTGLTSKAMSAPDGMIRILLNEESSKGAGQIEEFLMQFNGEGIQHVAFLTDDLVKTWDALKKIGMRFMTAPPDTYYEMLEGRLPDHGEPVDQLQARGILLDGSSVEGDKRLLLQIFSETLMGPVFFEFIQRKGDDGFGPFNFKGLFESIERDQVRRGVLTAD
modifications: HPPD variant - K300
notes: PfHPPD variant P215L, E335P, G336F, A340G

Key:
[1] = test system: Pseudomonas fluorescens HPPD protein; assay: HGD assay: HPPD activity coupled to HGA dioxygenase, pI50 and type of inhibition (time-course); format: biochemical; conditions: for tolerance (pI50) Cmpd. 2: inhibitor Cmpd. 2
Protocol: (§1) HPPD proteins were produced and purified as described in WO2011/076882. The activity of HPPD proteins in absence or presence of HPPD inhibitors was determined using either the so called OD assay or the HGD assay.
(§2) • a) The OD assay: The HPPD activity was determined colourimetrically by measuring the amount of HPP remaining in the assay mixture at the end of the incubation period after derivatisation of HPP with 2,4-dinitrophenylhydrazine (DNP) to form an amber-brown colored 2,4-dinitrophenylhydrazone under alkaline conditions. The assay was carried out at room temperature in Greiner F-bottom 96 well microplates. The assay mixture contained 50 mM Tris-HCl pH 7.8, 0.5 mM HPP, 10 mM ascorbate, 650 units of catalase and appropriate amounts of purified HPPD enzyme in a total assay volume of 100 μl. The reaction was started by the addition of enzyme. After an incubation time of 24 minutes, the reaction was stopped by the addition of 50 μl of a solution of 0.04% DNP dissolved in 3.8 N HCl. After a further 15-minute incubation period 100 μl of a 5 N KOH solution was added to the reaction mixture and the amount of unconsumed HPP was measured photometrically at 405 nm. Enzyme activity was calculated as the difference in E405 between assays lacking enzyme (negative control) and the enzyme containing assays (ΔE405=E405(negative control)−E405). Enzyme activity (nmol substrate consumed per min) was calculated from a calibration curve generated from HPP. pI50-values (the negative log value of the concentration of inhibitor necessary to inhibit 50% of the enzyme activity in molar concentration were determined from dose-response plots of HPPD activity versus inhibitor concentration tested (5.0×10^−6, 1.0×10^−5, 2.5×10^−5, 4.0×10^−5, 7.0×10^−5, 1.0×10^−4, 2.0×10^−4 and 5.0×10^−4M) using the 4 Parameter Logistic Model or Sigmoidal Dose-Response Model of the ID Business Solutions Ltd. XLfit software suite. The result “>5.6” means that the inhibition at the lowest inhibitor concentration tested was higher than 85% and the pI50-value could therefore not be precisely calculated within in the range of concentration of inhibitor tested. The result “<2.5” means that the inhibition at the highest inhibitor concentration tested was lower than 25% and the pI50-value could therefore not be precisely calculated within in the range of concentration of inhibitor tested. “n.d.” means not determined. • b) The HGD assay: With the HGD assay HPPD activity was measured at room temperature by adding appropriate amounts of HPPD to a solution of 200 mM Tris-HCl pH 7.6, 10 mM ascorbate, 20 μM FeSO4, 650 units of catalase, 8 μg HGA dioxygenase (HGA: homogentisate) and 600 μM HPP in a total volume of 1 ml. Initial reaction rates in the absence or presence of inhibitors were determined from the increase in absorbance at 318 nm due to the formation of maleylacetoacetate (ε318=11,900 M−1 cm-1). pI50-values (the negative log value of the concentration of inhibitor necessary to inhibit 50% of the enzyme activity in molar concentration were determined from dose-response plots of HPPD activity versus inhibitor concentration tested using the 4 Parameter Logistic Model or Sigmoidal Dose-Response Model of the ID Business Solutions Ltd. XLfit software suite. Due to the UV absorption of the HPPD inhibitors tested, inhibitor concentrations >100 μM could not be tested. The result “<4” means that the inhibition at 100 μM inhibitor concentration was lower than 25% and the pI50-value could therefore not be precisely calculated within in the range of concentration of inhibitor tested. “n.d.” means not determined. The HGD assay allowed to continuously follow HPPD-catalyzed HGA formation over time was therefore used to determine the inhibition type of the HPPD inhibitors tested. […] When in the presence of an inhibitor the HPPD activity was inhibited but the inhibition was found not to […] in a time-dependent manner, the inhibitor was called reversible (abbreviation “rev”). […]

[2] = test system: Pseudomonas fluorescens HPPD protein; assay: OD assay: HPPD activity and pI50 from HPP remaining after derivatisation with DNP; format: biochemical; conditions: for Activity DeltaE/24 min μg Protein: HPPD enzyme activity of the clone; for tolerance (pI50) DKN: inhibitor diketonitrile (DKN), negative log of molar concentration; for tolerance (pI50) MST: inhibitor mesotrione (MST); for tolerance (pI50) TBT: inhibitor tembotrione (TBT); for tolerance (pI50) Cmpd. 2: inhibitor Cmpd. 2
Protocol: as §1, §2

| Molecule | mechanism of inhibition by Cmpd. 2, time-course of inhibition [1] | tolerance (pI50) Cmpd. 2 ([1]; HGD assay) | Activity DeltaE/24 min μg Protein [2] [DeltaE/24 min μg Protein] | tolerance (pI50) DKN [2] | tolerance (pI50) MST [2] | tolerance (pI50) TBT [2] | tolerance (pI50) Cmpd. 1 ([1]; inhibitor Cmpd. 1, HGD assay) | tolerance (pI50) Cmpd. 4 ([1]; inhibitor Cmpd. 4, HGD assay) | tolerance (pI50) Cmpd. 2 [2] |
| --- | --- | --- | --- | --- | --- | --- | --- | --- | --- |
| B1 | fully reversible inhibitor | 6.2 | 0.50 | 3.3 | 3.7 | 4.8 |  |  |  |
| B2 | fully reversible inhibitor | 5.9 | 0.50 | 3.1 | 3.7 | 4.8 | 5.5 | 6.9 |  |
| B3 | fully reversible inhibitor | 5.5 | 0.12 | 2.8 | 3.4 | 4.7 |  |  |  |
| B4 | fully reversible inhibitor | 5.3 | 0.08 | <2.5 | 3.0 | 3.9 |  |  |  |
| B5 | fully reversible inhibitor |  | 0.09 | 3.0 | 3.7 | 4.5 |  |  | 5.0 |
| B6 | fully reversible inhibitor |  | 0.15 | <2.5 | 3.4 | 4.4 |  |  | 5.4 |
| B7 | fully reversible inhibitor | 4.3 | 0.01 | <2.5 | <2.5 | 3.1 |  |  | 3.8 |
